# From US20200024360A1 (Janssen / Centocor, published 2020)
# Where two headings read alike, the source gives them in different places.
# T1: Cynomolgous monkey PSMA, full length (Macaca fascicularis, UniProt Q04609 1-750 (human entry))
# T1 construct: On transfected HEK293F cells; also called cyno PSMA; EHH56646.1
# T1 chain: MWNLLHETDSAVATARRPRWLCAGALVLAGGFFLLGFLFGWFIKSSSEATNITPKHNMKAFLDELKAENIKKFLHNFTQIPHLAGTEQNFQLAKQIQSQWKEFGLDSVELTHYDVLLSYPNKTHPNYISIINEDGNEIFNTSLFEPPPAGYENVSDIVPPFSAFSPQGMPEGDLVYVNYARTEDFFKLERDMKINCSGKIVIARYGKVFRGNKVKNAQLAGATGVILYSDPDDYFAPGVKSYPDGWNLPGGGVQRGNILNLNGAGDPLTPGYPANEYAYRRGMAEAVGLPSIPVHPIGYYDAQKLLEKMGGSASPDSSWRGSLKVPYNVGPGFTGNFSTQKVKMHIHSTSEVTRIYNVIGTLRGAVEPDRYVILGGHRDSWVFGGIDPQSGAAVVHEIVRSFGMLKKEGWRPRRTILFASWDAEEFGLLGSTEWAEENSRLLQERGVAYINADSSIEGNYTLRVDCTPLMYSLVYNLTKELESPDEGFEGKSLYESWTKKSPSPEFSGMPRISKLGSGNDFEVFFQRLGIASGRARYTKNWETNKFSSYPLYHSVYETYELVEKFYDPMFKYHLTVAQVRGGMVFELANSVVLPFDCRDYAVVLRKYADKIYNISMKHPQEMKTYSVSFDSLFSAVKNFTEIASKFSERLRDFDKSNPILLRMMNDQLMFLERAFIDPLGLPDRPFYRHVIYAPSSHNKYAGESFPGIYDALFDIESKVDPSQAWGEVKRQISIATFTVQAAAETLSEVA
# B1: PS3B27 (bispecific antibody, human IgG4 S228P, kappa, lambda, F234A L235A)
# heavy 1: not shown
# light 1: not shown
# heavy 2: EVQLVESGGGLVQPGGSLRLSCAASGFTFNTYAMNWVRQAPGKGLEWVARIRSKYNNYATYYAASVKGRFTISRDDSKNSLYLQMNSLKTEDTAVYYCARHGNFGNSYVSWFAYWGQGTLVTVSSASTKGPSVFPLAPCSRSTSESTAALGCLVKDYFPEPVTVSWNSGALTSGVHTFPAVLQSSGLYSLSSVVTVPSSSLGTKTYTCNVDHKPSNTKVDKRVESKYGPPCPPCPAPEAAGGPSVFLFPPKPKDTLMISRTPEVTCVVVDVSQEDPEVQFNWYVDGVEVHNAKTKPREEQFNSTYRVVSVLTVLHQDWLNGKEYKCKVSNKGLPSSIEKTISKAKGQPREPQVYTLPPSQEEMTKNQVSLTCLVKGFYPSDIAVEWESNGQPENNYKTTPPVLDSDGSFLLYSKLTVDKSRWQEGNVFSCSVMHEALHNHYTQKSLSLSLGK
# light 2: QTVVTQEPSLTVSPGGTVTLTCRSSTGAVTTSNYANWVQQKPGQAPRGLIGGTNKRAPGTPARFSGSLLGGKAALTLSGVQPEDEAEYYCALWYSNLWVFGGGTKLTVLGQPKAAPSVTLFPPSSEELQANKATLVCLISDFYPGAVTVAWKADSSPVKAGVETTTPSKQSNNKYAASSYLSLTPEQWKSHRSYSCQVTHEGSTVEKTVAPTECS
# notes: IgG4 PAA; PSMA arm chains first, then CD3 arm (F405L, R409K); also called PSMB127 x CD3B219; PS2B27
# B2: PS3B23 (bispecific antibody, human IgG4 S228P, kappa, lambda, F234A L235A)
# heavy 1: not shown
# light 1: not shown
# heavy 2: B1 heavy 2
# light 2: B1 light 2
# notes: IgG4 PAA; PSMA arm chains first, then CD3 arm (F405L, R409K); also called PSMB123 x CD3B219
# B3: PS3B25 (bispecific antibody, human IgG4 S228P, kappa, lambda, F234A L235A)
# heavy 1: not shown
# light 1: not shown
# heavy 2: B1 heavy 2
# light 2: B1 light 2
# notes: IgG4 PAA; also called PSMB87 x CD3B219
# Columns and labels:
# [1] = target: T2, human PSMA (prostate specific membrane antigen), full length (human, UniProt Q04609 1-750); assay: cell-based or functional assay
# [2] = target: T2, human PSMA (prostate specific membrane …); assay: flow cytometry cell binding assay, bispecific antibody titrated on LNCaP cells (human PSMA)
# Protocol: (§1) PSMA×CD3 bispecific antibodies were tested for binding to PSMA positive cell lines LNCAP, human PSMA-HEK, Chimpanzee-PSMA-HEK and Cynomolgous monkey PSMA-HEK. To assess the binding capabilities of the PSMA bispecific antibodies, the cell-binding assay was utilized (described previously). Briefly, PSMA expressing tumor cells are bound by bispecific antibodies at known concentrations and the bound antibody is detected by an anti-human kappa light chain PE conjugated detection reagent (Invitrogen). The Mean Fluorescents Intensity (MFI) is the measure of bound bispecific antibody. The MFI is converted to a relative EC₅₀. EC₅₀ is a commonly used dose-response curve, where the half maximal effective concentration or the EC₅₀ point is defined as the inflection point of the curve. EC₅₀ s were determined by measuring cell bound bispecific and known concentrations. […] The dose response curves were then diluted down to that of background or no bispecific binding. The inflection point of this curve reflects the EC₅₀ point. The calculated EC₅₀ is determined by taking the ug/ml amount of bispecific antibody at the EC₅₀ point and converting it to a molarity value based on the MW of the bispecific antibody. Bispecific antibodies were normalized for protein concentration and then incubated with the same number of cells expressing either human or cyno PSMA. The MFI at each concentration was collected by flow cytometry and plotted as a function of concentration. Data was transformed via log 10 and then plotted. Nonlinear regression of binding curves was done to determine EC₅₀ s. These relative values were used for ranking PSMA binding to target cells.
# PSMA×CD3 bispecific antibodies were tested for binding to PSMA positive cell line, LNCAP, to PSMA negative cell line, PC3. To assess the binding capabilities of the PSMA bispecific antibodies, the cell-binding assay was utilized (described previously). Bispecific antibodies were normalized for protein concentration and then incubated with the same number of cells expressing either human or cyno PSMA. The MFI at each concentration was collected by flow cytometry and plotted as a function of concentration.
# [3] = target: T2, human PSMA (prostate specific membrane …); assay: as above; remark: listed apart in the source
# Protocol: as §1, with “The MFI at each concentration was collected by flow cytometry and plotted as a function of concentration. Data was transformed via log 10 and then plotted. Nonlinear regression of binding curves was done to determine EC₅₀ s. These relative values were used for ranking PSMA binding to target cells.” left out
# [4] = target: T2, human PSMA (prostate specific membrane …); assay: flow cytometry, bispecific antibody titrated on LNCaP cells (human PSMA), anti-human kappa light chain PE
# Protocol: as §1
# [5] = target: T1, Cynomolgous monkey PSMA, full length; assay: flow cytometry, bispecific antibody titrated on cyno PSMA (PSMG5) HEK cells, anti-human kappa light chain PE
# Protocol: as §1, with “The MFI at each concentration was collected by flow cytometry and plotted as a function of concentration. Data was transformed via log 10 and then plotted. Nonlinear regression of binding curves was done to determine EC₅₀ s. These relative values were used for ranking PSMA binding to target cells.” left out
binder,measurement,setting,value
B1,"EC50, T-cell dependent cytotoxicity (caspase 3/7), C-42B, donor M2550",[1],0.11 nM
same,"EC50, T-cell dependent cytotoxicity (caspase 3/7), C-42B, donor M5524",[1],0.06 nM
same,"EC50, T-cell dependent cytotoxicity (caspase 3/7), C-42B, donor M5772",[1],0.03 nM
same,"EC50, T-cell dependent cytotoxicity (caspase 3/7), C-42B, donor M7259",[1],0.06 nM
same,"EC50, T-cell dependent cytotoxicity (caspase 3/7), C-42B, donor M7444",[1],0.05 nM
same,"EC50, T-cell dependent cytotoxicity (caspase 3/7), LNCaP FGc, donor M2550",[1],0.27 nM
same,"EC50, T-cell dependent cytotoxicity (caspase 3/7), LNCaP FGc, donor M5524",[1],0.09 nM
same,"EC50, T-cell dependent cytotoxicity (caspase 3/7), LNCaP FGc, donor M5772",[1],0.04 nM
same,"EC50, T-cell dependent cytotoxicity (caspase 3/7), LNCaP FGc, donor M7259",[1],0.05 nM
same,"EC50, T-cell dependent cytotoxicity (caspase 3/7), LNCaP FGc, donor M7444",[1],0.09 nM
same,EC50 (read off the curve),[2],~7 nM
same,EC50 (read off the curve),[3],~7 nM
B2,binding result,[4],binds
B3,binding result,[5],binds
